Data: PMC10443397

Target: triple-phosphorylated Schizosaccharomyces pombe Dss1, fluorescein-labelled on the C-terminal cysteine (S. pombe) (UniProt O14140)
Assay: MST

Kd: 1300 nM
B1: FHA domain of Schizosaccharomyces pombe Dma1 (residues 25-160) (domain or fragment)
chain: DKISIRLTNFVGPNAHSFSFDPLVRYWNRKQNNLPIYIGRYTERYNGGDVSAIVFRSKVVSRRHAQIFYENNTWYIQDMGSSSGTFLNHVRLSPPSKTSKPYPISNNDILQLGADYRGGHEVNYRCVRARVELNNS
